Laboratory results as given in paper doi:10.1101/2024.09.05.611430 (bioRxiv, 2024).
Values joined by “and” are separate entries in the source; they are usually repeats but may differ in a detail not shown here. Equal entries are not always repeated.

Target: the molecule itself
Test: cryo-EM structure

B1: Mpn444 (Mycoplasma pneumoniae lipoprotein, recombinant, without the N-terminal signal sequence, aa 28-1325) (natural protein, UniProt P75334 28-1325, looked up)
chain: CAQPTASTVEGLFKPSSAFADRTDFSLSSILQKSLINRESFNQYLAMRLAPVLRTFYEDNYDTDIKERLNGFTADTDNAFVSQEQNLRNQFRENYLVHLQTDIFDNTGGNQAAWKLRDVNNKIIDDFISRIFAKNFVEYVQDGVGPLTKPTKSLIENTSNFKNIKLQPKFVNKNAKLKINNDAVYAAIQDKLLDQFITNENPNLVSRVVFTNETPVDGFDNYFNTKVIQSPTPSYQFQVFNKYNQQSGGTKGANGFNLLASNLKSYKNDQSKGIDIPNKFSSDSGGKLLLKASDMFDTFDPSFSAAFIQGYLALQKKSKGADSKEVDSLIKDKSIIENFFVDNNTQAAAAARAASSSSEGTIQLKTASDGGGTTQSTVHKTDLVKIFGDKDVFAGEYKQQIGNTNANQTGGGGSGGGGGTSTGSSTGSSTETTTGNSSKAVVDLIEVKKDSSSQPDYILSRGKDGIHLMAVDGGSHYLTESGRDVAKQKKFLLFRALQTKYGLVDTDTTYDFKLFDEVKKYFDTNRILFLFEALLDLSSDTNNKDNFLSYPQFKKFADSIKSIEKDLKELVQAHYKQAVFNETAVAENKVTLKLAERNQPFIDNERNNQIEQNGLAAKLPYEQDAKTGHYNDLGNYYKDIIDNVDKKGTSTVKTTSSNTGQTKNFSEEVVSKLKDNKKKVEEAAKKHVEALKVFTIPSPLYSQVILVQTKLSFTPESTSLGLNLALNNYLTSTELQNSIKLSYFQEDEAFKKIIDITNLTFSQQSGGTGGTNGNNNLTADNWKIFKETYLLDLFESQAQKSIFGHVGSSDKNSSTKTGIEGVLDTLYSSLNLEERLDSDDVIDYLSYLYTAHWLLKDNLKNYKQSLQSKLSRTSNAFLVWSVDSEKNKNDSQSTLSSTASSTSNTGLIQLRSVVSLAQNQAAGQGGDNNSDITQTEVKNPNFVFGSSVYDWTNSKTPEVNRAADDTSSFFYTKSSSSSTGAAQSSATVLRSLNQASGMTTKTAKNRYGFRGIVTSSTSGSLPEAVSRRLFKQFVNQTEKGVKVGGQMLITTAKSGKATLVLKQQADDAESTTNNAYKGALFSFGSMDNLKNIINGIQTQTEFDALYNHLTSDLNIDVTGVDKNKTLTEQKTSLTSFVDSNFKQSTQSAQRGDTSARSARSATVQIKKTQEDNQNTNYKDVFSRFDGYIGDNKVEEKNYTSYQFLSDGGKYHATFVKQVNLDDVEKIGTDSLKQEDSSKDKRLNLSLEEFLAAIALEALDPNNQTQAINALISGNKKGLVKVGDFRIFSSISAQWVRRF
With B1 the “stoichiometry N” value was 3 and 2.
